Patent US20260232829A1 (CYTOSPIRE THERAPEUTICS, published 2026)

B1: Human IL-15R beta/CD122 Protein, His Tag (Acro Biosystems CD2-H5221) (receptor, UniProt P14784 27-239, looked up)
chain: AVNGTSQFTCFYNSRANISCVWSQDGALQDTSCQVHAWPDRRRWNQTCELLPVSQASWACNLILGAPDSQKLTTVDIVTLRVLCREGVRWRVMAIQDFKPFENLRLMAPISLQVVHVETHRCNISWEISQASHYFERHLEFEARTLSPGHTWEEAPLLTLKQKQEWICLETLTPDTQYEFQVRVKPLQGEFTTWSPWSQPLAFRTKPAALGKD
notes: Bought recombinant protein with a His tag; also called Human IL-15Rβ protein; IL-15 receptor beta-His
B2: Human his-tagged NKG2D/CD314 (Acro Biosystems, NKD-H5245) (receptor, UniProt P26718 78-216, looked up)
chain: FLNSLFNQEVQIPLTESYCGPCPKNWICYKNNCYQFFDESKNWYESQASCMSQNASLLKVYSKEDQDLLKLVKSYHWMGLVHIPTNGSWQWEDGSILSPNLLTIIEMQKGDCALYASSFKGYIENCSTPNTYICMQRTV
notes: Bought recombinant protein with a His tag; also called Human NKG2D-His protein; NKG2D-His
B3: CYTB21 (antibody, human IgG1, kappa, V domains shown)
VH: EVQLVQSGAEVKEPGESLKISCKNSGYSFTNYWVGWVRQMPGKGLEWMGIIYPGDSDTRYSPSFQGQVTISADKSINTAYLQWSSLKASDTAMYYCGRLTMFRGIIIGYFDYWGQGTLVTVSS
VL: EIVLTQSPATLSLSPGERATLSCRASQSVSSYLAWYQQKPGQAPRLLIYDASNRATGIPARFSGSGSGTDFTLTISSLEPEDFAVYYCQQRSNWPWTFGQGTKVEIKR
notes: Control, Format E: anti-NKG2D IgG1 (H6/L6) without IL-15 components; also called CYB21; anti-NKG2D IgG1

Assays:
CYTB29 [1] = target: T1, CYTB29; test: SPR avidity format, antigen immobilised on CM5 chip, test molecule injected as analyte
T1 construct: Comparator, Format G: three chains, monovalent for NKG2D (H5/L5) and IL-15 receptor beta; wild-type IL-15
Excerpt: (§1) In order explore avidity binding effects (rather than affinity), a different assay orientation was employed. Specifically, the recombinant target human antigens (NKG2D-His or IL-15 receptor beta-His antigens, see Example 5) were immobilized on CM5 Series S sensor chips (Cytiva, catalogue number 29149603). […] Irrelevant mAbs were employed to determine and subtract background. As previously (Example 5), standard regeneration solutions and buffers were employed. To determine and compare avidity effects, test molecules were the injected in stepwise serial dilutions and sensogram responses generated.

CYTB29 [2] = target: T1, CYTB29; test: SPR (Biacore), molecule captured on anti-human IgG Fc chip, antigen as analyte, 1:1 Langmuir fit
Description: (§2) In brief, the test molecules were first immobilized on a goat anti-human IgG (Fc specific) antibody plated on a Biacore CM5 Series S sensor chip (CFJB1172, Cytiva Cat No. 29149603) by injection at 5 nM at flow rate 30 ul/min. […] The quality of the fits was assessed by visual inspection.

CYTB04 = target: T2, CYTB04; test: as above
T2 construct: Immunocytokine, Format A: anti-NKG2D IgG1 (H5/L5) with sushi-IL-15 at the C-terminus of each heavy chain
Description: as §2

CYTB30 = target: T3, CYTB30; test: SPR avidity format, antigen immobilised on CM5 chip, test molecule injected as analyte; avidity format of Table 6 (Example 6); not the capture format of Table 5
T3 construct: Comparator, Format G: three chains, monovalent for both targets; also called CYB30
Excerpt: as §1

[3] = target: B2; test: SPR (Biacore), molecule captured on anti-human IgG Fc chip, antigen as analyte, 1:1 Langmuir fit
Description: as §2

Question: Which Kd (CYTB29 [1]) does the source give for B1 here?
Answer: 6.4 nM

Question: What about the Kd (CYTB29 [2]) of the same binder?
Answer: 3.52 nM

Question: What about the Kd (CYTB04) of the same binder?
Answer: 6 nM

Question: Which results are given for B2?
Answer: Kd (CYTB29 [1]): 4.8 nM; Kd (CYTB29 [2]): 1.92 nM; Kd (CYTB04): 1.25 nM; Kd (CYTB30): 3830 nM

Question: How did the Kd [3] turn out when B3 was run?
Answer: 1.65 nM
